Source: the supplement of paper PMC11246515
± gives the standard deviation of the averaged measurements.

Test: total protein half-life in vivo (active degradation + dilution); higher = more stable protein
[1] = wild type E. coli NCM3722, growth: C-lim chemostat, doubling time 3 h
[2] = wild type E. coli NCM3722, growth: C-lim chemostat, doubling time 6 h
[3] = wild type E. coli NCM3722, growth: C-lim chemostat, doubling time 12 h
[4] = wild type E. coli NCM3722, growth: N-lim chemostat, doubling time 6 h
[5] = E. coli NCM3722 delta-clpP delta-lon delta-hslV, growth: N-lim chemostat, doubling time 6 h
[6] = E. coli NCM3722 delta-clpP, growth: N-lim chemostat, doubling time 6 h
[7] = E. coli NCM3722 delta-hslV, growth: N-lim chemostat, doubling time 6 h
[8] = E. coli NCM3722 delta-lon, growth: N-lim chemostat, doubling time 6 h
[9] = E. coli NCM3722 delta-smpB, growth: N-lim chemostat, doubling time 6 h
[10] = wild type E. coli NCM3722, growth: N-lim chemostat, doubling time 12 h
[11] = wild type E. coli NCM3722, growth: P-lim chemostat, doubling time 6 h
[12] = wild type E. coli NCM3722, growth: P-lim chemostat, doubling time 12 h

| Sequence | total protein half-life in vivo [1] [h] | total protein half-life in vivo [2] [h] | total protein half-life in vivo [3] [h] | total protein half-life in vivo [4] [h] | total protein half-life in vivo [5] [h] | total protein half-life in vivo [6] [h] | total protein half-life in vivo [7] [h] | total protein half-life in vivo [8] [h] | total protein half-life in vivo [9] [h] | total protein half-life in vivo [10] [h] | total protein half-life in vivo [11] [h] | total protein half-life in vivo [12] [h] |
| --- | --- | --- | --- | --- | --- | --- | --- | --- | --- | --- | --- | --- |
| MSAQINNIRPEFDREIVDIVDYVMNYEISSKVAYDTAHYCLLDTLGCGLEALEYPACKKLLGPIVPGTVVPNGVRVPGTQFQLDPVQAAFNIGAMIRWLDFNDTWLAAEWGHPSDNLGGILATADWLSRNAVASGKAPLTMKQVLTAMIKAHEIQGCIALENSFNRVGLDHVLLVKVASTAVVAEMLGLTREEILNAVSLAWVDGQSLRTYRHAPNTGTRKSWAAGDATSRAVRLALMAKTGEMGYPSALTAPVWGFYDVSFKGESFRFQRPYGSYVMENVLFKISFPAEFHSQTAVEAAMTLYEQMQAAGKTAADIEKVTIRTHEACIRIIDKKGPLNNPADRDHCIQYMVAIPLLFGRLTAADYEDNVAQDKRIDALREKINCFEDPAFTADYHDPEKRAIANAITLEFTDGTRFEEVVVEYPIGHARRRQDGIPKLVDKFKINLARQFPTRQQQRILEVSLDRARLEQMPVNEYLDLYVI | 3.04 ± 0.28 | 4.21 ± 0.07 | 8.53 ± 1 | 5.98 |  |  |  |  |  |  |  |  |
| MSAQKPGLHPRNRHHSRYDLATLCQVNPELRQFLTLTPAGEQSVDFANPLAVKALNKALLAHFYAVANWDIPDGFLCPPVPGRADYIHHLADLLAEASGTIPANASILDIGVGANCIYPLIGVHEYGWRFTGSETSSQALSSAQAIISSNPGLNRAIRLRRQKESGAIFNGIIHKNEQYDATLCNPPFHDSAAAARAGSERKRRNLGLNKDDALNFGGQQQELWCEGGEVTFIKKMIEESKGFAKQVMWFTSLVSRGENLPPLYRALTDVGAVKVVKKEMAQGQKQSRFIAWTFMNDEQRRRFVNRQR | 2.98 ± 0.11 | 4.83 ± 0.83 | 13.2 | 4.81 ± 0.35 | 5.5 ± 0.76 | 4.08 ± 0.18 | 5.27 ± 1.1 | 5.31 ± 0.52 | 4.11 ± 0.72 | 7.46 ± 0.98 | 5.28 ± 0.23 | 10.5 ± 0.17 |
| MSAQVSLELHHRISQFLFHEASLLDDWKFRDWLAQLDEEIRYTMRTTVNAQTRDRRKGVQPPTTWIFNDTKDQLERRIARLETGMAWAEEPPSRTRHLISNCQISETDIPNVFAVRVNYLLYRAQKERDETFYVGTRFDKVRRLEDDNWRLLERDIVLDQAVITSHNLSVLF | 2.05 | 5.02 | 8.73 |  | > 8 |  |  |  |  |  | 5.1 ± 0.36 | 9.68 ± 0.98 |
| MSCEELEIVWNNIKAEARTLADCEPMLASFYHATLLKHENLGSALSYMLANKLSSPIMPAIAIREVVEEAYAADPEMIASAACDIQAVRTRDPAVDKYSTPLLYLKGFHALQAYRIGHWLWNQGRRALAIFLQNQVSVTFQVDIHPAAKIGRGIMLDHATGIVVGETAVIENDVSILQSVTLGGTGKSGGDRHPKIREGVMIGAGAKILGNIEVGRGAKIGAGSVVLQPVPPHTTAAGVPARIVGKPDSDKPSMDMDQHFNGINHTFEYGDGI [P0A9D4] | 3.65 ± 0.071 | 5.49 ± 0.22 | 9.82 ± 0.61 | 5.03 ± 0.5 | 5.17 ± 0.28 | 4.83 ± 0.052 | 4.32 ± 0.11 | 4.85 ± 0.097 | 4.76 ± 0.16 | 7.88 ± 0.39 | 5.83 ± 0.13 | 11.5 ± 0.77 |
| MSDDNSHSSDTISNKKGFFSLLLSQLFHGEPKNRDELLALIRDSGQNDLIDEDTRDMLEGVMDIADQRVRDIMIPRSQMITLKRNQTLDECLDVIIESAHSRFPVISEDKDHIEGILMAKDLLPFMRSDAEAFSMDKVLRQAVVVPESKRVDRMLKEFRSQRYHMAIVIDEFGGVSGLVTIEDILELIVGEIEDEYDEEDDIDFRQLSRHTWTVRALASIEDFNEAFGTHFSDEEVDTIGGLVMQAFGHLPARGETIDIDGYQFKVAMADSRRIIQVHVKIPDDSPQPKLDE [P0AE78] | 2.91 ± 0.18 | 5.83 ± 0.67 | 10 ± 0.62 | 4.6 ± 0.091 | 5.6 ± 0.81 | 4.83 ± 0.09 | 5.25 ± 0.99 | 5.54 ± 0.81 | 4.73 ± 0.13 | 8.26 ± 0.13 | 5.28 ± 0.17 | 9.77 ± 1.1 |
| MSDERYQQRQQRVKEKVDARVAQAQDERGIIIVFTGNGKGKTTAAFGTATRAVGHGKKVGVVQFIKGTWPNGERNLLEPHGVEFQVMATGFTWDTQNRESDTAACREVWQHAKRMLADSSLDMVLLDELTYMVAYDYLPLEEVVQALNERPHQQTVIITGRGCHRDILELADTVSELRPVKHAFDAGVKAQIGIDY [P0A9H5] | 3.41 ± 0.32 | 5.05 ± 0.13 | 9.56 ± 0.6 | 4.235 ± 0.024 | 4.8 ± 0.41 | 4.52 ± 0.17 | 4.27 ± 0.56 | 5.29 ± 1.2 | 4.17 ± 0.17 | 6.63 ± 0.33 | 5.852 ± 0.021 | 11 ± 0.43 |
| MSDIALTVSILALVAVVGLFIGNVKFRGIGLGIGGVLFGGIIVGHFVSQAGMTLSSDMLHVIQEFGLILFVYTIGIQVGPGFFASLRVSGLRLNLFAVLIVIIGGLVTAILHKLFDIPLPVVLGIFSGAVTNTPALGAGQQILRDLGTPMEMVDQMGMSYAMAYPFGICGILFTMWMLRVIFRVNVETEAQQHESSRTNGGALIKTINIRVENPNLHDLAIKDVPILNGDKIICSRLKREETLKVPSPDTIIQLGDLLHLVGQPADLHNAQLVIGQEVDTSLSTKGTDLRVERVVVTNENVLGKRIRDLHFKERYDVVISRLNRAGVELVASGDISLQFGDILNLVGRPSAIDAVANVLGNAQQKLQQVQMLPVFIGIGLGVLLGSIPVFVPGFPAALKLGLAGGPLIMALILGRIGSIGKLYWFMPPSANLALRELGIVLFLSVVGLKSGGDFVNTLVNGEGLSWIGYGALITAVPLITVGILARMLAKMNYLTMCGMLAGSMTDPPALAFANNLHPTSGAAALSYATVYPLVMFLRIITPQLLAVLFWSIG | 3.27 ± 0.38 | 5.33 ± 1.1 | 11.4 ± 1.6 | 5.98 ± 0.39 |  | 5.7 ± 0.54 | 6.35 | 5.52 ± 0.89 | 6.03 ± 0.39 | 10.4 ± 0.3 | 5.7 ± 0.059 | 9.94 ± 1.5 |
